# From patent US20260000752A1 (AKSTON BIOSCIENCES, published 2026)
# B1: insulin-Fc fusion protein of SEQ ID NO: 29 (Fc fusion)
# chain: FVNQHLCGSHLVEALELVCGERGFHYGGGGGGSGGGGGIVEQCCTSTCSLDQLENYCGGGGGQGGGGQGGGGQGGGGGDCPKCPAPEMLGGPSVFIFPPKPKDTLLIARTPEVTCVVVDLDPEDPEVQISWFVDGKQMQTAKTQPREEQFNGTYRVVSVLPIGHQDWLKGKQFTCKVNNKALPSPIERTISKARGQAHQPSVYVLPPSREELSKNTVSLTCLIKDFFPPDIDVEWQSNGQQEPESKYRTTPPQLDEDGSYFLYSKLSVDKSRWQRGDTFICAVMHEALHNHYTQESLSHSPG
# Biological target: T1, recombinant human Fc(gamma)RI, biotinylated (R&D Systems) (human, UniProt P12314 16-288)
# T1 construct: also called rhFc(gamma) receptor I; Fc(gamma) Receptor I
# T1 sequence (P12314 16-288 limits assumed): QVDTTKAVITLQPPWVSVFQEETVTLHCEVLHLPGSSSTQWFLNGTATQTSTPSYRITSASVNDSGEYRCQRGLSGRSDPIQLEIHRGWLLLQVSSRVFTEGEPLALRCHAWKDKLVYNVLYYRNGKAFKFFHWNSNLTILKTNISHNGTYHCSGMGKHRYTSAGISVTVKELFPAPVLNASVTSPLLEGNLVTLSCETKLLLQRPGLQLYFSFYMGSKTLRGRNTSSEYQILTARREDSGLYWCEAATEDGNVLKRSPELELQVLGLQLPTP
# Test: ELISA pH 7.4; insulin-Fc coated, biotinylated rhFc(gamma)RI titrated (Example 51)
binder,measurement,value
B1,binding result,binds
